For the assay, the target named is T1, human LDL oxidatively modified by copper sulfate (human, UniProt P04114 28-4563, limits assumed, oxidatively modified by copper sulfate).
T1 construct: Lipoprotein particle; also called oxidized LDL
Kind of assay: ELISA on immobilized Cu-oxidized human LDL, anti-mouse IgM-HRP. On the procedure:
50 μl of […] human LDL oxidatively modified by copper sulfate was added to each well of 96-well microtiter plates (Immulon-2), and incubated at 4° C. overnight. After washing with PBS-Tween, the plates were blocked with 0.5% BSA-PBS. Test samples (culture supernatants appropriately diluted with PBS containing 0.1% BSA) were incubated in the plates at room temperature for one hour. After the plates were washed three times with PBS-Tween, an HRP-labeled anti-mouse IgM antibody was incubated in the plates at room temperature for one hour. After the plates were washed three times with PBS-Tween, 0.03% H₂O₂ and 0.1 M citrate buffer […] containing 0.4 mg/ml orthophenylenediamine (OPD) were added to the plates. After ten minutes of incubation, the reaction was stopped by adding an equal volume of 2N H₂SO₄. Absorbance was measured at 490 nm (FIG. 2). FIG. 2 is a graph showing the reactivities of monoclonal antibodies to NLO and oxidized LDL. The monoclonal antibodies were produced by hybridomas of the established five clones.
(ELISA stands for enzyme-linked immunosorbent assay.)

T1 sequence (P04114 28-4563 limits assumed): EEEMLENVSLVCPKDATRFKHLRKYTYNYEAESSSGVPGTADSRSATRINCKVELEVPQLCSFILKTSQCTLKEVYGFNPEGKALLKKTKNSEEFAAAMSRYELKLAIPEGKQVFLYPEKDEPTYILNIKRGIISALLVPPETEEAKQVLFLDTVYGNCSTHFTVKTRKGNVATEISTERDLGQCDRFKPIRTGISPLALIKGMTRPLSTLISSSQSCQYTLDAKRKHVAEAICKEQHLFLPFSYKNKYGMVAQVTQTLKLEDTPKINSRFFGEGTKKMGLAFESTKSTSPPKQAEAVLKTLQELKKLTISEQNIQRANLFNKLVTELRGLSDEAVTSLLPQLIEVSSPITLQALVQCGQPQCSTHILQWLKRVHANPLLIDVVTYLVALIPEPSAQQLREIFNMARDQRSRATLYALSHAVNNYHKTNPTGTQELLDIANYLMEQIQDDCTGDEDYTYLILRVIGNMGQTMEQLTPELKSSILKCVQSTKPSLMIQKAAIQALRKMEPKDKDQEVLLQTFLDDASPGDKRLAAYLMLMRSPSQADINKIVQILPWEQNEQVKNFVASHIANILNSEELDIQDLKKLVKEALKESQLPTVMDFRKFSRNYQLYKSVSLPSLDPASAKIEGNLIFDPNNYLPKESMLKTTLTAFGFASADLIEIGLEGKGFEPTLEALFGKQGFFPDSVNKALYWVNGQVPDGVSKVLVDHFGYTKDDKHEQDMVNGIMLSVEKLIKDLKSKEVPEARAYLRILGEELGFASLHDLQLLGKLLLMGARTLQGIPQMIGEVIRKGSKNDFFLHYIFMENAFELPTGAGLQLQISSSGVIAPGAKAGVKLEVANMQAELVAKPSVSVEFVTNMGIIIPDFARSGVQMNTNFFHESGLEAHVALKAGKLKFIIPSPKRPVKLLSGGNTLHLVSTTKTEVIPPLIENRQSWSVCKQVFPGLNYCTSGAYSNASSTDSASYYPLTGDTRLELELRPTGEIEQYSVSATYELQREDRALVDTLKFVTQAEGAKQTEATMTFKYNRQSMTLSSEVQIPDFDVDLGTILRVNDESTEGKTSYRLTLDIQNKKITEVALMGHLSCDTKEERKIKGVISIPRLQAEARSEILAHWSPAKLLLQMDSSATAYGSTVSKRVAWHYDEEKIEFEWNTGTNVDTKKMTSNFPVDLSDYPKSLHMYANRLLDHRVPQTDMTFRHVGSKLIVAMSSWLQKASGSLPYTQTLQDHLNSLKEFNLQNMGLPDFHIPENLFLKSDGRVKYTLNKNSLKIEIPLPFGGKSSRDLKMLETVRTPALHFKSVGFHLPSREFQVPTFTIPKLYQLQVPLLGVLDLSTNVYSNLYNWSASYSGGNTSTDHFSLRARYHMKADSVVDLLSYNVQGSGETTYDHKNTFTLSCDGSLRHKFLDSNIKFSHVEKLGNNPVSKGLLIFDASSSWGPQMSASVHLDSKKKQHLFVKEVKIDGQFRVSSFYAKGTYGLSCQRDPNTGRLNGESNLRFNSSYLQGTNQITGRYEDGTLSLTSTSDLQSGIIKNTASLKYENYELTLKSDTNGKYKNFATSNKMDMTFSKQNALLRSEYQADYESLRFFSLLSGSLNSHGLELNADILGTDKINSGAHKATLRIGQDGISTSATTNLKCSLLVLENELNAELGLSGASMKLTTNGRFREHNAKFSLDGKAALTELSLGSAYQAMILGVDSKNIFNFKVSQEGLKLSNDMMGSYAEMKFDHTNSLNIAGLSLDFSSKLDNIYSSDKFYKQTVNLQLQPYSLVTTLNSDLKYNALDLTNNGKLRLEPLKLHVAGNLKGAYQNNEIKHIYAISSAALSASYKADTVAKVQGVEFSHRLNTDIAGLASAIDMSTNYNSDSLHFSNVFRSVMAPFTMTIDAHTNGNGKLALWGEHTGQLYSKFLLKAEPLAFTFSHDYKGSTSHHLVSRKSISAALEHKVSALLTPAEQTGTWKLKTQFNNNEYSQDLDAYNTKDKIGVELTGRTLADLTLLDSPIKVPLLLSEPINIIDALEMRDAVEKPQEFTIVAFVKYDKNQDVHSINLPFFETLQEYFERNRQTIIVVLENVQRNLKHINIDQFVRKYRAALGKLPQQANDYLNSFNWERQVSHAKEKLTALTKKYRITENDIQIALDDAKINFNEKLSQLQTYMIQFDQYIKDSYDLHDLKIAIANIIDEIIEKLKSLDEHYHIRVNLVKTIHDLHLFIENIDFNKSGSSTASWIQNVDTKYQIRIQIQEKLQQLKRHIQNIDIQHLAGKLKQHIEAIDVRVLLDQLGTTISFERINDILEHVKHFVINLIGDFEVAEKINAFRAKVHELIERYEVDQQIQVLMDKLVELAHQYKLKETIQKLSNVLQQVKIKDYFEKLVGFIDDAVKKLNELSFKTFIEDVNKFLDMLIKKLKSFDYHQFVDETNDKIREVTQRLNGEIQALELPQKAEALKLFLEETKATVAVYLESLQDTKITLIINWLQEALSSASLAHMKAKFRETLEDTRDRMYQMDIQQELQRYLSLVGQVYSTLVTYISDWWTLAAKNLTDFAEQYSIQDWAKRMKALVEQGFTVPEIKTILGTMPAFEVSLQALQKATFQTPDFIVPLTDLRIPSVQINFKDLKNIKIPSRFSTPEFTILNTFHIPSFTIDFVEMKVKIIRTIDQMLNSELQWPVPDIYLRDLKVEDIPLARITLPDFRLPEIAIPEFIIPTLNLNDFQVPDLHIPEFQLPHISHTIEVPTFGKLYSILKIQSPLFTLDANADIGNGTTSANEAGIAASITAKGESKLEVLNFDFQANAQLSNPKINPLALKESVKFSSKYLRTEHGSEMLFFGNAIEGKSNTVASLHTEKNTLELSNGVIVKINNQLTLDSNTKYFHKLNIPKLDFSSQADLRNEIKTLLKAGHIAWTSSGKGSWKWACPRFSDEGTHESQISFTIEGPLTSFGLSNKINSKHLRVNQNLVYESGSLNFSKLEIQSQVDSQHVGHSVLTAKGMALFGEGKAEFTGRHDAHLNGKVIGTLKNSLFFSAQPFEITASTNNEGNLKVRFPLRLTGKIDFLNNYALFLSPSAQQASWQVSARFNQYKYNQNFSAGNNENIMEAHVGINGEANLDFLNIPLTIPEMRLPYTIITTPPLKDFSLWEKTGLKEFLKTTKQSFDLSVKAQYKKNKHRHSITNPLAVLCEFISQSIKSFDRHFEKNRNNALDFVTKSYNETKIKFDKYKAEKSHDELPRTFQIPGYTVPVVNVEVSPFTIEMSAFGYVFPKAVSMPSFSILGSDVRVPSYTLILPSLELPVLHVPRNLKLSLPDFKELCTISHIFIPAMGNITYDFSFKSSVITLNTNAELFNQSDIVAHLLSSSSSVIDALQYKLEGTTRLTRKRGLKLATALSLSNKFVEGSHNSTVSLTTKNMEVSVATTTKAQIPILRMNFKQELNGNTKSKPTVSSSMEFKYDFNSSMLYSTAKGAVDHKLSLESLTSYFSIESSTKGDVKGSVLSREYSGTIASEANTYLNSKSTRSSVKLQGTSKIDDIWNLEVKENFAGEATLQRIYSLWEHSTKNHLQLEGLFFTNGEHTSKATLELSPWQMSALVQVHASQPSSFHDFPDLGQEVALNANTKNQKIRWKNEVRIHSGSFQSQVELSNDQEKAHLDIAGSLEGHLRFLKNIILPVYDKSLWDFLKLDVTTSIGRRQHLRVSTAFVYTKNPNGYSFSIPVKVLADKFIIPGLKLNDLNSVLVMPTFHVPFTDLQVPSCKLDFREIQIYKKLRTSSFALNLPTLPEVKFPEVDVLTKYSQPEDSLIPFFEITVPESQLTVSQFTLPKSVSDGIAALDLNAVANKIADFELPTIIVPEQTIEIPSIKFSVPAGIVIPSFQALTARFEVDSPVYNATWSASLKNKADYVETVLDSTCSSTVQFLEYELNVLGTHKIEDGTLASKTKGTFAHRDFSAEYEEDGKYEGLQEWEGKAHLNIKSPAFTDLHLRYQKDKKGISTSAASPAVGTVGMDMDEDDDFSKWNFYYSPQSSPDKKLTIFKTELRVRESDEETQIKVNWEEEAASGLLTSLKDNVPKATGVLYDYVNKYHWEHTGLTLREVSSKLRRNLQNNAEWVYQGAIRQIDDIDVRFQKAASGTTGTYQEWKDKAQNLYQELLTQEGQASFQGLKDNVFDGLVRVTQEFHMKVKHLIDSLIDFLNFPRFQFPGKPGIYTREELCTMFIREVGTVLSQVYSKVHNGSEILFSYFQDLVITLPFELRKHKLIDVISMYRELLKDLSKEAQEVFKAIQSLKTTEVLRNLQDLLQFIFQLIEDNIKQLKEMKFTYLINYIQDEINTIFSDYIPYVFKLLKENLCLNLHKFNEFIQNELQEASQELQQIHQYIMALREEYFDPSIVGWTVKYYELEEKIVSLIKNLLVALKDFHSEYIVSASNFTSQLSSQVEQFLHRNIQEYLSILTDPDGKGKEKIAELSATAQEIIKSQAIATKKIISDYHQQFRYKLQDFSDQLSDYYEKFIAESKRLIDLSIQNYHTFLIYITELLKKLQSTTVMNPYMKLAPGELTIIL

B1: CL48-139 (antibody, IgM, V domains shown)
VH: EGQLQQSGAEVVKPGASVKLSCTASGFNIKDTYIHWVKQRPEQGLEWIGRIDPTNGNTKYDPEFQGKATITADTSSNTAYLHLSGLTSEDTAVYYCAKGTLFAYWGQGTLVTVSA
VL: DIKMTQSPSSMYASLGERVTFTCKASQDINNYLTWVQQKPGKSPKTLIYRANRLVDGVPSRFSGSGSGQDYSLTISSLEYEDMGIYYCLQYDEFPPTFGGGTKLEIK
notes: Mouse monoclonal IgM, kappa, from mice immunized with arteriosclerotic plaque homogenate
As to B1, the binding result was “no binding”.

B2: CL56-369 (antibody, IgM, V domains shown)
VH: QVQLQQPGAELVKPGASVKLSCKASGYTFTSYWMHWVKQRPGQGLEWIGEIDPSDSYTNYNQKFKGKATLTVDKSSSTAYMQLSSLTSEDSAVYYCARGDMDAMDYWGQGTSVTVSS
VL: ETTVTQSPASLSMAIGEKVTIRCITSTDIDDDMNWYQQKPGEPPKLLISEGNTLRPGVPSRFSSSGYGTDFVFTIENMLSEDVADYYCLQSDNLPLTFGAGTKLELK
notes: as for B1
On to B2, for which the binding result is reported as “no binding”.

For the origin of these results see patent US20110182817A1 (NATIONAL UNIVERSITY CORPORATION OKAYAMA UNIVERSITY, published 2011).
